Test results as given in IntAct's records for PubMed 22493499.

B1: Signaling lymphocytic activation molecule (Mus musculus), Q9QUM4 (parent)
chain: MDPKGSLSWRILLFLSLAFELSYGTGGGVMDCPVILQKLGQDTWLPLTNEHQINKSVNKSVRILVTMATSPGSKSNKKIVSFDLSKGSYPDHLEDGYHFQSKNLSLKILGNRRESEGWYLVSVEENVSVQQFCKQLKLYEQVSPPEIKVLNKTQENENGTCSLLLACTVKKGDHVTYSWSDEAGTHLLSRANRSHLLHITLSNQHQDSIYNCTASNPVSSISRTFNLSSQACKQESSSESSPWMQYTLVPLGVVIIFILVFTAIIMMKRQGKSNHCQPPVEEKSLTIYAQVQKSGPQEKKLHDALTDQDPCTTIYVAATEPAPESVQEPNPTTVYASVTLPES

Variants of: B1
Conditions: with becn1_human BECN1, Q14457
Sequence of becn1_human BECN1, Q14457 (Q14457 whole entry): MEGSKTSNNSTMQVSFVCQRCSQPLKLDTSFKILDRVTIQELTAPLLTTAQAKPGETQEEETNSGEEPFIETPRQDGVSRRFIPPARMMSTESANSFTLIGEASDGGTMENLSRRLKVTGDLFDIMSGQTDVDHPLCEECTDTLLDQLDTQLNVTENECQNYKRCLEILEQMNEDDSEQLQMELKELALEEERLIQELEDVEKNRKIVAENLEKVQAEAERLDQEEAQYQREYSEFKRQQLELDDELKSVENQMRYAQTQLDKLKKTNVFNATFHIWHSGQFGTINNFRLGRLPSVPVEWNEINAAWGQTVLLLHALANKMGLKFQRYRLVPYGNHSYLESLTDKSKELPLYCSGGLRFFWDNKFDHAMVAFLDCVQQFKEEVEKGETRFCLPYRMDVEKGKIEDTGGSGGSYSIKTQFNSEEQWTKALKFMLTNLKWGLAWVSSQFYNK

Row | Variant | effect of a mutation on the interaction
1 | Y288F;Y315F | decreasing interaction
2 | Y315F;Y335F | decreasing interaction
3 | Y288F;Y335F | decreasing interaction
